Reference: PMC10308904, “The Cytomegalovirus M35 Protein Directly Binds to the Interferon-β Enhancer and Modulates Transcription of Ifnb1 and Other IRF3-Driven Genes”
Residue numbers refer to the chain shown, from its start.

Tests used:
[1] = biological target: NStr-M35_S, short M35 (aa 2 to 452) with N-terminal Twin-Strep tag and TEV site (murine cytomegalovirus (MCMV)); assay: SEC-MALS; 100 μg protein on Superdex 200 Increase 10/300 in 50 mM Tris pH 7.4, 10% glycerol, 250 mM NaCl, 1 mM DTT
M35_S [2] = biological target: T1, M35_S (murine cytomegalovirus (MCMV) strain …, UniProt D3XDM4 2-452); assay: EMSA; Hill coefficient 2.775; conditions: protein: recombinant; tags: N-terminal Twin-Strep tag removed by TEV (GS remnant likely); chain copies: 2; label: 5'-biotin on both strands; 5' overhang 1 nt each end, 56 bp
T1 sequence: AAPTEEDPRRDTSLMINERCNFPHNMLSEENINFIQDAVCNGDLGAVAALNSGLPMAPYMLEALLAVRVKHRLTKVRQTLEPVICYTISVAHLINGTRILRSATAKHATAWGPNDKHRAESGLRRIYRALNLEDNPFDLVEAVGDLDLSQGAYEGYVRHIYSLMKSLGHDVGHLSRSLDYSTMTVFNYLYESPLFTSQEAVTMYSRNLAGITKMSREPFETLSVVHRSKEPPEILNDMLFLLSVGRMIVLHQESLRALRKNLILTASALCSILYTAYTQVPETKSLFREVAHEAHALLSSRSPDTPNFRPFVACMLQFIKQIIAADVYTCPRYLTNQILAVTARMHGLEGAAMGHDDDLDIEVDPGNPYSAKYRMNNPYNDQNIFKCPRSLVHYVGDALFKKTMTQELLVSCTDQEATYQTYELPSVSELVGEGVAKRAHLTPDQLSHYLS

M35_S [3] = biological target: T1, M35_S; assay: EMSA; 0.1-10 uM M35_S; second complex at 10 uM; conditions: protein: recombinant; tags: N-terminal Twin-Strep tag removed by TEV (GS remnant likely); chain copies: 2; label: 5'-biotin on both strands; 5' overhang 1 nt each end, 56 bp
M35_S [4] = biological target: T1, M35_S; assay: EMSA; conditions: protein: recombinant; tags: N-terminal Twin-Strep tag removed by TEV (GS remnant likely); chain copies: 2; label: 5'-biotin on both strands; 5' overhang 1 nt each end, 56 bp
M35_S [5] = biological target: T1, M35_S; assay: EMSA; 1 uM M35_S; conditions: protein: recombinant; tags: N-terminal Twin-Strep tag removed by TEV (GS remnant likely); chain copies: 2; label: 5'-biotin on both strands; 5' overhang 1 nt each end, 56 bp

“NStr-M35_S, short M35 (aa 2 to 452) with N-terminal Twin-Strep tag and TEV site (domain or fragment)” gave a stoichiometry N [1] of 2.

B1: Bio-mIFNb (murine IFN-b enhancer) (dsDNA)
DNA 1: AAAATGACAGAGGAAAACTGAAAGGGAGAACTGAAAGTGGGAAATTCCTCTGAGGCA
DNA 2: CTGCCTCAGAGGAATTTCCCACTTTCAGTTCTCCCTTTCAGTTTTCCTCTGTCATTT
Molecule B1 has a Kd (M35_S [2]) of 2060 nM.

B2: Bio-hIFNb (human IFN-b enhancer) (dsDNA)
DNA 1: B1 DNA 1 with A1T, G10T, C31G, G54A, G55T, C56A, A57G
DNA 2: B1 DNA 2 with C1A, T2C, G3T, C4A, C5T, G28C, C49A
B2: binds (M35_S [3]).

B3: Bio-scrambled (ScrHIFNb) (dsDNA)
DNA 1: ATAAGAGAACTAAGCGGAATAAGTAAGAGATGATCGGATTAGTCGCTAAGAATGAGA
DNA 2: TTCTCATTCTTAGCGACTAATCCGATCATCTCTTACTTATTCCGCTTAGTTCTCTTA
B3: no binding (M35_S [4]).

B4: Bio-hIFNb 1-38 (dsDNA)
DNA 1: TAAATGACATAGGAAAACTGAAAGGGAGAAGTGAAAGTGACATGCTACGGAATGAAT
DNA 2: AATTCATTCCGTAGCATGTCACTTTCACTTCTCCCTTTCAGTTTTCCTATGTCATTT
B4: binds (M35_S [5]).

B5: Bio-hIFNb 15-38 (dsDNA)
DNA 1: ATATAAGACGGAATAAACTGAAAGGGAGAAGTGAAAGTGACATGCTACGGAATGAAT
DNA 2: AATTCATTCCGTAGCATGTCACTTTCACTTCTCCCTTTCAGTTTATTCCGTCTTATA
B5: binds (M35_S [5]).
